The text below walks through data of publication PMC7296346, “Dynamic Palmitoylation of the Sodium-Calcium Exchanger Modulates Its Structure, Affinity for Lipid-Ordered Domains, and Inhibition by XIP” (Cell Reports, 2020).

What is called stoichiometry N is a count of units in the complex or per binding partner.

Data set [1] addresses C739A NCX1, full length, tetracycline-inducible in FT-293 cells (canine). The experiment in a line: cross-linking; FT-293 cells expressing tetracycline-inducible NCX1 treated with 0.1 mM BMH for 5 min at 37°C in 10 mM Tris-HCl pH 7.2, 150 mM NaCl; lysed in 1% Triton X-100; SDS-PAGE.
Data set [2] deals with the molecule itself. The description is as above.

Regarding “C739A NCX1, full length, tetracycline-inducible in FT-293 cells (natural protein)”, the stoichiometry N in data set [1] worked out at 2.

B1: wild-type (WT) NCX1, full length, tetracycline-inducible in FT-293 cells (natural protein, canine, UniProt P23685 33-970, looked up)
chain: ETEMEGEGNETGECTGSYYCKKGVILPIWEPQDPSFGDKIARATVYFVAMVYMFLGVSIIADRFMSSIEVITSQEKEITIKKPNGETTKTTVRIWNETVSNLTLMALGSSAPEILLSVIEVCGHNFTAGDLGPSTIVGSAAFNMFIIIALCVYVVPDGETRKIKHLRVFFVTAAWSIFAYTWLYIILSVISPGVVEVWEGLLTFFFFPICVVFAWVADRRLLFYKYVYKRYRAGKQRGMIIEHEGDRPSSKTEIEMDGKVVNSHVDNFLDGALVLEVDERDQDDEEARREMARILKELKQKHPEKEIEQLIELANYQVLSQQQKSRAFYRIQATRLMTGAGNILKRHAADQARKAVSMHEVNTEVAENDPVSKIFFEQGTYQCLENCGTVALTIIRRGGDLTNTVFVDFRTEDGTANAGSDYEFTEGTVVFKPGETQKEIRVGIIDDDIFEEDENFLVHLSNVKVSSEASEDGILEANHVSALACLGSPSTATVTIFDDDHAGIFTFEEPVTHVSESIGIMEVKVLRTSGARGNVIVPYKTIEGTARGGGEDFEDTCGELEFQNDEIVKTISVKVIDDEEYEKNKTFFLEIGEPRLVEMSEKKALLLNELGGFTITGKYLYGQPVFRKVHAREHPIPSTVITIAEEYDDKQPLTSKEEEERRIAEMGRPILGEHTKLEVIIEESYEFKSTVDKLIKKTNLALVVGTNSWREQFIEAITVSAGEDDDDDECGEEKLPSCFDYVMHFLTVFWKVLFAFVPPTEYWNGWACFIVSILMIGILTAFIGDLASHFGCTIGLKDSVTAVVFVALGTSVPDTFASKVAATQDQYADASIGNVTGSNAVNVFLGIGVAWSIAAIYHAANGEQFKVSPGTLAFSVTLFTIFAFINVGVLLYRRRPEIGGELGGPRTAKLLTSCLFVLLWLLYIFFSSLEAYCHIKGF
modifications: palmitoylated at cysteine 739
notes: Na-Ca exchanger 1, canine, NCX1.1 cDNA; Forms a dimer (cross-linking); The cell line is from Reilly et al., 2015; source: in cells or in lysate
Turning to B1, the “stoichiometry N” value in data set [2] came to 2.
